The data set deals with the molecule itself. Nature of the data set: cryo-EM structure; nucleosome (0.9 µM) and Rpd3S (1.8 µM) mixed on ice for 1 h in 50 mM NaCl, 20 mM Na-HEPES pH 7.4, 1 mM TCEP, 4% glycerol; Superose 6 Increase 3.2/300; mild glutaraldehyde cross-linking; single-particle cryo-EM, overall 2.8 Å (Ume1 only at more than 8 Å).

Results on one protein are retold here after publication PMC10709384, “Structure of the complete Saccharomyces cerevisiae Rpd3S-nucleosome complex” (Nature Communications, 2023).

B1: Rco1 (natural protein, S. cerevisiae)
chain: MDTSKKDTTRSPSHSNSSSPSSSSLSSSSSKEKKRPKRLSSQNVNYDLKRRKIITSEGIERSFKNEHSNLAVEDNIPEEEPKELLEKDSKGNIIKLNEPSTISEDSKVSVTGLPLNKGPSEKIKRESLWNYRKNLGGQSNNSEMTLVPSKRFTQVPKNFQDLNRNDLKTFLTENMTEESNIRSTIGWNGDIINRTRDREPESDRDNKKLSNIRTKIILSTNATYDSKSKLFGQNSIKSTSNASEKIFRDKNNSTIDFENEDFCSACNQSGSFLCCDTCPKSFHFLCLDPPIDPNNLPKGDWHCNECKFKIFINNSMATLKKIESNFIKQNNNVKIFAKLLFNIDSHNPKQFQLPNYIKETFPAVKTGSRGQYSDENDKIPLTDRQLFNTSYGQSITKLDSYNPDTHIDSNSGKFLICYKCNQTRLGSWSHPENSRLIMTCDYCQTPWHLDCVPRASFKNLGSKWKCPLHSPTKVYKKIHHCQEDNSVNYKVWKKQRLINKKNQLYYEPLQKIGYQNNGNIQIIPTTSHTDYDFNQDFKITQIDENSIKYDFFDKIYKSKMVQKRKLFQFQESLIDKLVSNGSQNGNSEDNMVKDIASLIYFQVSNNDKSSNNKSASKSNNLRKLWDLKELTNVVVPNELDSIQFNDFSSDEIKHLLYLKKIIESKPKEELLKFLNIENPENQSE
notes: Rco1, S. cerevisiae, amplified from genomic DNA of strain BJ5464; cloned into a 438-A vector with no tag; Two copies (Rco1A in the core module, Rco1B in the auxiliary module) stand in the Rpd3S complex; also called Rco1A; Rco1B
Consider B1, for which the binding result was “binds”.
